T1: human EphA10 extracellular region-SEAP-His protein (human, UniProt Q5JZY3 34-565)
T1 construct: extracellular domain; also called hEphA10-SEAP-His
T1 sequence (looked up): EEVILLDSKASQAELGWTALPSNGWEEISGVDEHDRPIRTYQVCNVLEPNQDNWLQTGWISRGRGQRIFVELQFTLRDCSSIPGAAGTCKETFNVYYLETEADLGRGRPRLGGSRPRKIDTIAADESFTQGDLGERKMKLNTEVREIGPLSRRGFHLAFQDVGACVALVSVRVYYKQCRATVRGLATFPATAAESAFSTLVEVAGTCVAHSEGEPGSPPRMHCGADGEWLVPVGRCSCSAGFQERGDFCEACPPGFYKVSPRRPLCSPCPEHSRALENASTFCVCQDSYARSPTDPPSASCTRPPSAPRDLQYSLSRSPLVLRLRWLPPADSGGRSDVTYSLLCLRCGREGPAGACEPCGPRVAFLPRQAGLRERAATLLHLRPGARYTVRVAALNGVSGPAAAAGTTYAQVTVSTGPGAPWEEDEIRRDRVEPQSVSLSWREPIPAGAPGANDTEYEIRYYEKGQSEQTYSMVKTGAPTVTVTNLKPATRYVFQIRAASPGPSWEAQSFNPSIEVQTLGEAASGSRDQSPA


Columns and labels:
[1] = target: T2, human EphA4 extracellular region-SEAP-His protein (human, UniProt P54764 20-547); test: competition ELISA, competitor human Ephrin A5-Fc
T2 construct: also called hEphA4-SEAP-His
T2 sequence (P54764 20-547): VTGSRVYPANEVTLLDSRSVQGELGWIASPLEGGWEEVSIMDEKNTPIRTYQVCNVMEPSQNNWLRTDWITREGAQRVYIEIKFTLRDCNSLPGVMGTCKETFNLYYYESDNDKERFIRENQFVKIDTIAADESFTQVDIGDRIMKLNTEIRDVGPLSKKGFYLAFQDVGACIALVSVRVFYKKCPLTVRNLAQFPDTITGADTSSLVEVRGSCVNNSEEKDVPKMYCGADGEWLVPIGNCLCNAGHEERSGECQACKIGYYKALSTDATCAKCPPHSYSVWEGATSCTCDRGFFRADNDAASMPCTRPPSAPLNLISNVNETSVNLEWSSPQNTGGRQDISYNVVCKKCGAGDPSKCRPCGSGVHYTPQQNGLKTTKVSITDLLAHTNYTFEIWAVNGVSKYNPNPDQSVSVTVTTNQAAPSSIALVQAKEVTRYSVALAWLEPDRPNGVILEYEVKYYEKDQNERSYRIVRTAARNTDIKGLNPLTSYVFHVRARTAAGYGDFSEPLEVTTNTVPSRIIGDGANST
Procedure: Each anti-EphA4 monoclonal humanized antibody obtained in Example 16 was evaluated for its inhibitory activity against the binding between human EphA4 and its human ligand according to the following steps. Each well of a 96-well plate (Nunc) was coated with an anti-alkaline phosphatase antibody (Thermo Fisher Scientific). After incubation overnight at 4° C., each well was blocked with 1% BlockAce (DS Pharma Biomedical) at room temperature for 1 hour. After washing with 0.05% Tween 20/PBS (Thermo Fisher Scientific) three times, the human EphA4 extracellular region-SEAP-His protein obtained by the method of Example 2 was added (final concentration: 10 nM) to each well and incubated at room temperature for 1 hour. After washing three times, a ligand and each serially diluted humanized antibody of antibody A (0, 0.003, 0.01, 0.03, 0.1, 0.3, 1, 3, 10, 30, 100, 300, 1000, and 3000 nM) were added to each well. The ligand used was biotinylated human Ephrin A5-Fc chimera (R&D Systems, final concentration: 0.7 nM). After incubation at room temperature for 1 hour and subsequent washing three times, horseradish peroxidase-labeled streptavidin (GE Healthcare) was added thereto and incubated at room temperature for 1 hour. After washing three times, a TMBZ (3,3′,5,5′-tetramethylbenzidine, Sigma-Aldrich) solution was added to each well and incubated at room temperature for 2 minutes. An equal amount of a reaction stopping solution (1N H₂SO₄, Wako Pure Chemical Industries) was added to each well. The absorbance at 450 nm was read using a microplate reader (PerkinElmer).

[2] = target: T2, human EphA4 extracellular …; test: SPR, Ab captured
Procedure: The binding affinity of each anti-EphA4 monoclonal humanized antibody obtained in Example 16 for human EphA4 was determined by surface plasmon resonance (SPR) using Biacore T200 (GE Healthcare). First, for the assay of antibody A, a rat anti-mouse IgG₁ antibody produced with a conventional method by immunizing rat with mouse IgG₁ antibody was immobilized on sensor chip CM5. The immobilization of the rat anti-mouse IgG1 antibody on sensor chip CM5 was performed by the amine coupling method using N-hydroxysuccinimide (NHS) and N-ethyl-N′-(3-dimethylaminopropyl)carbodiimide hydrochloride (EDC). Ethanolamine was used in blocking (the sensor chip and the reagents for immobilization were all manufactured by GE Healthcare). The antibody was diluted with a buffer solution for immobilization (10 mM sodium acetate, pH 4.5) and immobilized on the sensor chip according to the protocol attached to Biacore T200. For the assay of each humanized monoclonal antibody, a protein A chip (GE Healthcare, 29-1383-03) was used. Antibody A or the humanized monoclonal antibody was diluted with a running buffer solution HBS-EP (GE Healthcare), injected onto only flow cell 2 for 120 seconds, and captured (captured amount: approximately 30 to 60 RU). Subsequently, human EphA4 extracellular region-SEAP-His protein serially diluted in the range of 50, 16.7, 5.6, 1.9, and 0.6 nM using HBS-EP was sequentially added from the lower toward higher concentration sides without regeneration operation. Binding reaction curves were sequentially observed at the time of the addition (association phase, for 120 sec) and after the completion of the addition (dissociation phase, for 900 sec). After the completion of each observation, the sensor chip was regenerated by the addition of 3 M MgCl₂ (for 60 sec) or 10 mM Glycine-HCl pH 1.5 (for 30 sec). The obtained binding reaction curves were subjected to fitting analysis with 1:1 binding models using software BIA evaluation attached to the system to calculate the affinity (KD=kd/ka) for human EphA4 (Table 6).

SEAP-His = SEAP-His (UniProt P05187 23-511); test: ELISA
Sequence of SEAP-His (P05187 23-511): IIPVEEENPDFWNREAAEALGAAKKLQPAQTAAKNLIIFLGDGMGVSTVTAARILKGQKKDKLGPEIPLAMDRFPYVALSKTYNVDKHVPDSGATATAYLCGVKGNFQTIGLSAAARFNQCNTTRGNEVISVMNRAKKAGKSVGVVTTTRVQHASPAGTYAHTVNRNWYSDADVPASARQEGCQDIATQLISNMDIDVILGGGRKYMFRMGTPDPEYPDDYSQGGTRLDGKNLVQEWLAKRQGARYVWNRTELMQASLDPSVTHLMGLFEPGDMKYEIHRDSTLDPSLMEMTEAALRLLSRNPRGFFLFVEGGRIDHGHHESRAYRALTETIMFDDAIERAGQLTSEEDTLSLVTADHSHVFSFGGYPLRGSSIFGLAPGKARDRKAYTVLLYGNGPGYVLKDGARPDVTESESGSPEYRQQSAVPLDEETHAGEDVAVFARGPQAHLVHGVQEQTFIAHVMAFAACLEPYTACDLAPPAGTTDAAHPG
Procedure: (§1) Each well of a 96-well plate (Nunc) was coated with a rabbit anti-6-His antibody (Bethyl Laboratories). Each well was […] After washing with 0.05% Tween 20/PBS (Nacalai Tesque) three times, the SEAP-His protein of human EphA1, EphA2, EphA3, EphA4, EphA5, EphA6, EphA7, EphA8, EphA10, EphB1, EphB2, EphB3, EphB4, or EphB6 was added (final concentration: 1 nM) to each well and incubated at room temperature for 1 hour. After washing three times, the humanized antibody was added to each well and incubated at room temperature for 1 hour. After washing three times, a horseradish peroxidase-labeled donkey […] antibody (Jackson ImmunoResearch Laboratories) was added thereto and incubated at room temperature for 1 hour. After washing three times, TMB Microwell Peroxidase Substrate System (Kirkegaard & Perry Laboratories (KPL)) was added to each well. After confirmation of moderate color development, an equal amount of a reaction stopping solution (1N H₂SO₄, Wako Pure Chemical Industries) was added to each well. The absorbance at 450 nm was read using a microplate reader (Thermo Fisher Scientific).

[3] = target: T1, human EphA10 extracellular …; test: ELISA
Procedure: as §1

Row | IC50 [1] [nM] | Kd [2] [nM] | koff [2] [s⁻¹] | kon [2] [M⁻¹ s⁻¹] | A450 as % of hEphA4-SEAP-His (SEAP-His) [%] | A450 as % of hEphA4-SEAP-His [3] [%] | Binder
1 | 3.7 | 2 | 0.00065 | 330000 | 6.4 | 6.5 | humanized antibody No. 145 (antibody, human IgG2, human Ig kappa; also called L1-5/HK2) heavy: QVQLVQSGSELKKPGASVKVSCKASGYTFTDYSMHWVRQAPGQGLKWMGWINTETGEPTYADDFKGRFVFSLDTSVSTAYLQISSLKAEDTAVYYCARIPLYYYGSRYWYFDVWGQGTTVTVSSASTKGPSVFPLAPSSRSTSESTAALGCLVKDYFPEPVTVSWNSGALTSGVHTFPAVLQSSGLYSLSSVVTVPSSNFGTQTYTCNVDHKPSNTKVDKTVERKSCVECPPCPAPPAAAPSVFLFPPKPKDTLMISRTPEVTCVVVDVSHEDPEVQFNWYVDGVEVHNAKTKPREEQFNSTFRVVSVLTVVHQDWLNGKEYKCKVSNKGLPAPIEKTISKTKGQPREPQVYTLPPSREEMTKNQVSLTCLVKGFYPSDIAVEWESNGQPENNYKTTPPMLDSDGSFFLYSKLTVDKSRWQQGNVFSCSVMHEALHNHYTQKSLSLSPG light: DIQMTQSPSSLSASVGDRVTITCRASENIYRNLAWYQQKPGKAPKLLLYAATNLADGVPSRFSGSGSGTDYTLTISSLQSEDFATYYCQHFWGTPWTFGQGTKVEIKRTVAAPSVFIFPPSDEQLKSGTASVVCLLNNFYPREAKVQWKVDNALQSGNSQESVTEQDSKDSTYSLSSTLTLSKADYEKHKVYACEVTHQGLSSPVTKSFNRGEC
2 | 2.3 | 2.1 | 0.0006 | 290000 | 5.9 | 6 | humanized antibody No. 153 (antibody, human IgG2, human Ig kappa; also called L1-5/HA2) heavy: QVQLVQSGSELKKPGASVKVSCKASGYTFTDYSMHWVRQAPGQGLKWMGWINTETGEPTYAQGFTGRFVFSLDTSVSTAYLQISSLKAEDTAVYYCARIPLYYYGSRYWYFDVWGQGTTVTVSSASTKGPSVFPLAPSSRSTSESTAALGCLVKDYFPEPVTVSWNSGALTSGVHTFPAVLQSSGLYSLSSVVTVPSSNFGTQTYTCNVDHKPSNTKVDKTVERKSCVECPPCPAPPAAAPSVFLFPPKPKDTLMISRTPEVTCVVVDVSHEDPEVQFNWYVDGVEVHNAKTKPREEQFNSTFRVVSVLTVVHQDWLNGKEYKCKVSNKGLPAPIEKTISKTKGQPREPQVYTLPPSREEMTKNQVSLTCLVKGFYPSDIAVEWESNGQPENNYKTTPPMLDSDGSFFLYSKLTVDKSRWQQGNVFSCSVMHEALHNHYTQKSLSLSPG light: DIQMTQSPSSLSASVGDRVTITCRASENIYRNLAWYQQKPGKAPKLLLYAATNLADGVPSRFSGSGSGTDYTLTISSLQSEDFATYYCQHFWGTPWTFGQGTKVEIKRTVAAPSVFIFPPSDEQLKSGTASVVCLLNNFYPREAKVQWKVDNALQSGNSQESVTEQDSKDSTYSLSSTLTLSKADYEKHKVYACEVTHQGLSSPVTKSFNRGEC
3 | 2 | 1.7 | 0.00053 | 320000 | 6.8 | 6.6 | humanized antibody No. 151 (antibody, human IgG2, human Ig kappa; also called L1-5/HA4) heavy: QIQLVQSGSELKKPGASVKVSCKASGYTFTDYSMHWVRQAPGQGLKWMGWINTETGEPTYAQGFTGRFVFSLDTSVSTAYLQISSLKAEDTAVYYCARIPLYYYGSRYWYFDVWGQGTTVTVSSASTKGPSVFPLAPSSRSTSESTAALGCLVKDYFPEPVTVSWNSGALTSGVHTFPAVLQSSGLYSLSSVVTVPSSNFGTQTYTCNVDHKPSNTKVDKTVERKSCVECPPCPAPPAAAPSVFLFPPKPKDTLMISRTPEVTCVVVDVSHEDPEVQFNWYVDGVEVHNAKTKPREEQFNSTFRVVSVLTVVHQDWLNGKEYKCKVSNKGLPAPIEKTISKTKGQPREPQVYTLPPSREEMTKNQVSLTCLVKGFYPSDIAVEWESNGQPENNYKTTPPMLDSDGSFFLYSKLTVDKSRWQQGNVFSCSVMHEALHNHYTQKSLSLSPG light: DIQMTQSPSSLSASVGDRVTITCRASENIYRNLAWYQQKPGKAPKLLLYAATNLADGVPSRFSGSGSGTDYTLTISSLQSEDFATYYCQHFWGTPWTFGQGTKVEIKRTVAAPSVFIFPPSDEQLKSGTASVVCLLNNFYPREAKVQWKVDNALQSGNSQESVTEQDSKDSTYSLSSTLTLSKADYEKHKVYACEVTHQGLSSPVTKSFNRGEC
4 | 2 | 2 | 0.00082 | 400000 | 5.4 | 5.8 | humanized antibody No. 152 (antibody, human IgG2, human Ig kappa; also called L1-5/HA1) heavy: QVQLVQSGSELKKPGASVKVSCKASGYTFTDYSMHWVRQAPGQGLEWMGWINTETGEPTYAQGFTGRFVFSLDTSVSTAYLQISSLKAEDTAVYYCARIPLYYYGSRYWYFDVWGQGTTVTVSSASTKGPSVFPLAPSSRSTSESTAALGCLVKDYFPEPVTVSWNSGALTSGVHTFPAVLQSSGLYSLSSVVTVPSSNFGTQTYTCNVDHKPSNTKVDKTVERKSCVECPPCPAPPAAAPSVFLFPPKPKDTLMISRTPEVTCVVVDVSHEDPEVQFNWYVDGVEVHNAKTKPREEQFNSTFRVVSVLTVVHQDWLNGKEYKCKVSNKGLPAPIEKTISKTKGQPREPQVYTLPPSREEMTKNQVSLTCLVKGFYPSDIAVEWESNGQPENNYKTTPPMLDSDGSFFLYSKLTVDKSRWQQGNVFSCSVMHEALHNHYTQKSLSLSPG light: DIQMTQSPSSLSASVGDRVTITCRASENIYRNLAWYQQKPGKAPKLLLYAATNLADGVPSRFSGSGSGTDYTLTISSLQSEDFATYYCQHFWGTPWTFGQGTKVEIKRTVAAPSVFIFPPSDEQLKSGTASVVCLLNNFYPREAKVQWKVDNALQSGNSQESVTEQDSKDSTYSLSSTLTLSKADYEKHKVYACEVTHQGLSSPVTKSFNRGEC

— patent US20190077860A1 (EISAI R AND D MANAGEMENT, published 2019)
